# According to US20240075096A1, “ANTIMICROBIAL PEPTIDE LIQUID COMPOSITION AND FORMULATION THEREOF” (priority 2021, published 2024):
# Tests used:
# [1] = Stability investigation of antimicrobial peptide compositions (trait, related substances and content by HPLC); type: physicochemical
# [2] = test system: methicillin-resistant Staphylococcus aureus (MRSA) clinical isolates; test: In vitro bacteriostatic and bactericidal tests (MIC, MBC); type: cell-based; conditions: MRSA clinical strains
# [3] = test system: Staphylococcus aureus ATCC29213; test: as above; type: cell-based; conditions: standard strain ATCC29213
# [4] = test system: Methicillin-sensitive Staphylococcus aureus (MSSA) clinical isolates; test: as above; type: cell-based; conditions: MSSA clinical strains
# [5] = test system: Methicillin-sensitive coagulase-negative Staphylococcus (MSSCNS) clinical isolates; test: as above; type: cell-based; conditions: MSSCNS clinical strains
# [6] = test system: Methicillin-resistant coagulase-negative Staphylococcus (MRSCNS) clinical isolates; test: as above; type: cell-based; conditions: MRSCNS clinical strains
# [7] = 4° C., 0 days, peptide 2‰, stabilizer 1% (Table 2)
# [8] = 4° C., 6 months, peptide 2‰, stabilizer 1% (Table 2)
# [9] = 4° C., 12 months, peptide 2‰, stabilizer 1% (Table 2)
# [10] = 4° C., 24 months, peptide 2‰, stabilizer 1% (Table 2)
# [11] = 4° C., 36 months, peptide 2‰, stabilizer 1% (Table 2)
# [12] = 25° C., 0 days, different mannitol systems (Table 3)
# [13] = 25° C., 0 days, peptide 2‰, stabilizer 1% (Table 1)
# [14] = 25° C., 1 month, peptide 2‰, stabilizer 1% (Table 1)
# [15] = 25° C., 3 months, different mannitol systems (Table 3)
# [16] = 25° C., 3 months, peptide 2‰, stabilizer 1% (Table 1)
# [17] = 25° C., 6 months, different mannitol systems (Table 3)
# [18] = 25° C., 6 months, peptide 2‰, stabilizer 1% (Table 1)
compound,measurement,setting,value
"KWKSFLKTFKSAAKTVLHTALKAISS [antimicrobial peptide, tested alone as aqueous solution without stabilizer]",Content,[1]; [7],99.87%
same,Largest Single Impurity (Related Substance),[1]; [7],0.19%
same,Total Impurities (Related Substance),[1]; [7],0.32%
same,Trait,[1]; [7],colorless clear liquid
same,Content,[1]; [8],97.51%
same,Largest Single Impurity (Related Substance),[1]; [8],0.27%
same,Total Impurities (Related Substance),[1]; [8],0.58%
same,Trait,[1]; [8],colorless transparent
same,Content,[1]; [9],94.51%
same,Largest Single Impurity (Related Substance),[1]; [9],0.32%
same,Total Impurities (Related Substance),[1]; [9],0.68%
same,Trait,[1]; [9],colorless transparent
same,Content,[1]; [10],85.57%
same,Largest Single Impurity (Related Substance),[1]; [10],0.72%
same,Total Impurities (Related Substance),[1]; [10],2.01%
same,Trait,[1]; [10],colorless transparent
same,Content,[1]; [11],76.55%
same,Largest Single Impurity (Related Substance),[1]; [11],0.96%
same,Total Impurities (Related Substance),[1]; [11],3.02%
same,Trait,[1]; [11],colorless transparent
same,Content,[1]; [12],100.12%
same,Largest Single Impurity (Related Substance),[1]; [12],0.16%
same,Total Impurities (Related Substance),[1]; [12],0.30%
same,Trait,[1]; [12],colorless
same,Content,[1]; [13],99.87%
same,Largest Single Impurity (Related Substance),[1]; [13],0.19%
same,Total Impurities (Related Substance),[1]; [13],0.32%
same,Trait,[1]; [13],colorless clear liquid
same,Content,[1]; [14],98.51%
same,Largest Single Impurity (Related Substance),[1]; [14],0.25%
same,Total Impurities (Related Substance),[1]; [14],0.53%
same,Trait,[1]; [14],colorless transparent
same,Content,[1]; [15],98.42%
same,Largest Single Impurity (Related Substance),[1]; [15],0.26%
same,Total Impurities (Related Substance),[1]; [15],0.55%
same,Trait,[1]; [15],colorless
same,Content,[1]; [16],88.57%
same,Largest Single Impurity (Related Substance),[1]; [16],0.68%
same,Total Impurities (Related Substance),[1]; [16],1.96%
same,Trait,[1]; [16],colorless transparent
same,Content,[1]; [17],87.67%
same,Largest Single Impurity (Related Substance),[1]; [17],0.85%
same,Total Impurities (Related Substance),[1]; [17],1.99%
same,Trait,[1]; [17],colorless
same,Content,[1]; [18],78.88%
same,Largest Single Impurity (Related Substance),[1]; [18],0.98%
same,Total Impurities (Related Substance),[1]; [18],3.16%
same,Trait,[1]; [18],colorless transparent
"CN[C@H](CC(C)C)C(=O)N[C@H]1C(=O)N[C@@H](CC(N)=O)C(=O)N[C@H]2C(=O)N[C@H]3C(=O)N[C@H](C(=O)N[C@H](C(=O)O)c4cc(O)cc(O)c4-c4cc3ccc4O)[C@H](O)c3ccc(c(Cl)c3)Oc3cc2cc(c3O[C@@H]2O[C@H](CO)[C@@H](O)[C@H](O)[C@H]2O[C@H]2C[C@](C)(N)[C@H](O)[C@H](C)O2)Oc2ccc(cc2Cl)[C@H]1O [Vancomycin, vancomycin]",MIC Concentration Range,[2],0.5 to 4 µg/mL
same,MBC Concentration Range,[3],4 µg/mL
same,MIC Concentration Range,[3],1 µg/mL
same,MIC Concentration Range,[4],0.5 to 4 µg/mL
same,MIC Concentration Range,[5],0.5 to 4 µg/mL
same,MIC Concentration Range,[6],0.5 to 4 µg/mL
